# Assay: yeast display, Sf9 membrane polyspecificity reagent, FACS + sequencing; frameworks hold sequencing errors
# Outline: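 Synthetic nanobody libraries on Saccharomyces cerevisiae BJ5465 were galactose-induced for 36–48 hours, stained 1 hour at 4 °C with 10% biotinylated, detergent-solubilized Sf9 membrane reagent and enriched on streptavidin microbeads. FACS then separated cells into low and high (top ~1%) gates by anti-HA (expression) and streptavidin (reagent binding) fluorescence. Genes were colony-PCR amplified, MiSeq 2 × 250 sequenced and CDR-length filtered. A clone's polyreactivity label is that of its gate of origin.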
row,Sequence,polyreactivity (PSR sort gate)
1,QVQLQESGVCLVQAGGSPRLSCAASDNIFPDSVMCWYRQAPGKERELVATIGFGATTNYADSVKGRFTISRDNAKNTVYLQMNSLKPEDTAVYYCAADPLNYEYFCYWGQGTQVTVSS,low polyreactivity
2,QVQLVESGGGLVQAGGRLSLSCAASGSIFLYYAMGWYRQAPGKEREFVADISRSGGSTYYADSVKGRFTISRDNAKNTVYLQMNSLKPEDTAVYYCAASFYRYFVSLCYDYWGQGTQVSVSS,high polyreactivity
3,QVQLVESGGGLVQAGGSLRLSCAASGRTFVPYAMGWYRQAPGKEREFVAAISSRVGSTYYADSVKGRFTISRDNAKNTVYLQRNSLKPEDTAVYYCNAPFKPAGFYSAWKYDYWGQGTQVTVSS,low polyreactivity
4,QVQLVESGGGLVQAGGSLRLSCAASGFTFLRNAMGWYRQAPGKERELVAAINRDGGRTYYADSVKGRFTISRDNAKNTVYLQMNSLKPADTAVYYCATTSQATSGPRRKLYYYWGQGTQVTVSS,high polyreactivity
5,QVQLVESGGGLVQAGGSLRLSCAASGSNFGWYAMGWYRQAPGKERELVAAITFSSVSTYYADSEKGRFTISRDNAKNTVYLQMNSLKPEDTAVYYCAAVVYYTFDYWGLGTQVTVSS,low polyreactivity
6,QVQLVESGRGLVQAGGSLRISSAASGFIYRYYAMGWYRQAPGKERELVAAINTGGTTYYADSVKGRFTISRDNAKNTVYFQMNSLKPEDTAVYYCAKRWPRSSLGDYWGQGTQVTVSS,high polyreactivity
7,QVQLVESGGGLVQAGGSLRLSCAPSGSTFRFYAMGWYRQAPGKERELVAVISSAGSTNYADSVKGRFTISRDNAQNTVYLQMNSLKPEDTAVYYCAAYRRYSIYNYWGQGTQVTVSS,high polyreactivity
8,QVQLVESGGGLVQAGGSLRLSCAASGSIFTGYAMGWYRPAPGKERELVAANRYTTTSTYYADSVKGRFTISRDNAKNTVYLQMHSLKPEDTAVYYCKGWRGTYSGDYWGQGTQVTVSS,high polyreactivity
9,QVQLVESGGGLVQAGGSLRLSCAASGSTLYRYTMGWYRQAPGKERELVAAISSGGNTYYADSVKGRFTISRDNAKNTVYLQMNSLKPEDTAVYYCAAEDSVYIPYYDAFDYWGQGTQVTVSS,low polyreactivity
10,QVQLVESGGVLVQAGGSLRLSCAPSGFTFYRYAMGWYRQAPGKESELVAAISYSGGRTYYADSVKGRFTISCDIAKNTVYLQMNSLKPEDTAVYYCNARASYGHQGRLGYARLYYWGQGTQVTVSS,high polyreactivity
11,QVQLVESGGGLVQAGGSLRLSCAASGFIFSYYAMGWYRQAPGKERELVAAISGRGGSTYYADSVKGRFTISRDNEKNTVYLQMNSLKPEDTAVYYCAATTLRFYRHGDYWGQGTQVTVSS,low polyreactivity
12,QVQLVESGGGLVQAGGSLRLSCAASGSTFALYTMGWYRQAPGKERELVAGITIDGSTNYADSVKGRFTISRDNAKNTVYLQMNSLKPEDTAVYYCNADSYKYPLLKYRSDYWGQGTQVTVSS,low polyreactivity
13,QVQLVESGGGLVQAGGSLRLSCAASGIIFGWYAMGWYRPAPGKERELVAGISIGGSTYYADSVKGRFTISRDNANNTVYLQMNSLKPEDTAVYYCAADSYFVLPWSDYWGQGTQVTVSS,high polyreactivity
14,QVQLVESGGGLVQAGGSLRLSCAASGSIYSNAMGWYRQAPGKERELVAAISRTGGSTYYADSVKGLFTISRDNAKITVYLQMNSLKPEDTAVYYCAVSAWTRSHALYYWGQGTQVTVSS,high polyreactivity
15,QVQLVESGGGIVQAGGILRLSCAASGRNLHGYTMGWYRQAPGKERELVATISSIGGSTYYADSVKGRFTISRDNAKNTVYLQMNSLKPEDTAVYYCAATRGRRYQSYYWGQGTQVTVSS,low polyreactivity
16,QVQHVESGGGLLQAGGSLRLSCAASGRTFGRYAMGWYRPAPGKERELVADIDYGGGSTYYADSVKGRFTISRDNAKNTFYLQMNSLKPEDTAVYYCNAGRDIGWGYHMDYWGQGTQVTVSS,high polyreactivity

row,Sequence,polyreactivity (PSR sort gate)
1,QVQLVESGGGLVQAGGSLRLSCAASGSIFRYYAMGWYRQAPGKERELVAAISSNGGSTYYADSVKGRFTISRDNAKNTVYLQMNSLKPEDTAVYYCNAVKVGPYYFRSDYWGQGTQVTVSS,high polyreactivity
2,QVQLVESGGGLVQAGGSLRLSSAASGSIFYNNAMGWYRQAPGKERELVAAISGSGDSTYYADSVKGRFTISRDNAKNTVYLQMNSLIPDDTAVYYCNATPYVLWWSDMDYWGQGTQVTVSS,high polyreactivity
3,QVQLVDSGGGLVQAGGSLRLSCAASGSIYSSYAMGWYRQAPGKERELVASISSGGSKNYADSVKGRFTISRVNAKNTVYLQMNSLKPEDTAFYYCNVDLYNWRGDYTGYDYWGQGTQVTVSS,low polyreactivity
4,QVQLVESGGGLVQAGGSLRLSCAASGLTFHPYAMGWYRQAPGKERELVAAISSRGTSTYYADSVKGRFTISRDNAKNTVYLQMNSLKPEDTAVYYCAAEVITIGLYRYGYWGQGTQVTVSS,high polyreactivity
5,QVQLVETGGGLVQAGGSLRLSCAASGFTFDVYVMGWYRLAPGKERELVAAISWSGDSTYYADSVKGRFTISRDNAKNTVYLQMNSLKPADCAFSFCAAVGYTSRRPVVRYYYWGQGTQVTVSS,high polyreactivity
6,QVQLVESGVGLVQAGGSLRLSCAASGITFEGYAMGWYRQAPGKERELVAAIRSSGTSTYYADSVKGRFTMSRDNAKNTVYLQMNSLKPEDTAVYYCNRARSSSRYDYWGQGTQVTVSS,low polyreactivity
7,QVQLQESGAGLVQAGGSLRLSCAASGSISAVGAMCWYRQAPGKEREFAASVNWATNTNYADSVKGRFTISRDNAKNTLYLQMNSLKPEDTAVYYCAVLPDWETRHDYWGHGTQVTVSS,low polyreactivity
8,QVQLVESGGGLVQAGGSLRLSCDASGSTFSDYAMGWYRQAPGKERELVAAISDSGSGTYYADSVKGRFTISRDNAKNTVYLQMNSLKPEDTAVYYCNTDPRFAMDWGQGTQVTVSS,low polyreactivity
9,QVQLVESGGGLVQAGGSLRLSCDASGRTCFKYAMGWYRQAPGKERELVATITSSGGITYADSVKGRFTISRDNAKNTVYLQMNSLKPEDTAVYYCNARVWVTHYSELNYWGQGTQVTVSS,low polyreactivity
10,QVQLVESGGGLVQAGGSLRLSCAASGRIFHGNAMGWYRQAPGKERELVAAISRSGSRTYYADSVKGRFTISRDNAKNTVYLQMNSLKPEDTAVYYCAAVTFSYQDYYWGQVTQVTVSS,high polyreactivity
11,QVQLVESGGGLDQAGGSLRLSCAASGSTLGRNAMGWYRQAPGKERELVAAISSSSGRTYYADSVKGRFTISRDNAKNTVYLQMNSLKPEDTAVYYCAATHAVARPLEYDYWGQGTQVTVSS,low polyreactivity
12,QVQLVESCGGLVQAGGSLRLSCAASGFICNGYTMGWSRQAPWKERELVAAISGSGGRTYYADSVKGRFTISRDNAKKTVYLQMNSLKPEDTAVYYCAASNWHSRGSGEYYWGQGTQVTVSS,high polyreactivity
13,QVQLVESGGGLVQAGGSLRLSCAASGNTFTWYTIGWYRQAPGKERELVAVITSDGSTYYADSVKGRFTISRDNAKNTVYLQMNSLKPEDTAVYYCNALSADWYPEVDYWGQGTQVTVSS,low polyreactivity
14,QVQLEESGVGLVQAGGSLRLSCAASGSTFQTYVMGWYRQAPGKERELVAAISSGGSTNYADSVKGRFTISRDNAKNTVYLQMNSLKPEDTAVYYCAKRWPYFRRGKDGYWGQGTQVTVSS,low polyreactivity
15,QVQLVESGGGLVQAGGSLRLSCAASGFTLRVNAMGWYRHPPGKERELVAAISDSGGDTYYADSVKGRFTISRDNAKNTVYLQMNSLKPEDTAVYYCAADDGSENDYWGQGTQVTVSS,low polyreactivity
16,QVQLVESGGGLVQAGGSLRLSCAASGSTFYDSAMGWYRQAPGKERELVAAINWSSDTTYYADSVKGRFTISRDNAKNTVYLQMNSLKPEDTAVYYCATDSAYRGYDYWGQGTQVNVSS,low polyreactivity

# — the nanobody polyreactivity screen of Harvey et al. (2022)
